Experimental findings from PMC3400432 (Developmental Cell, 2012) are described below.

To fix the notation:
B1: epsin1-Venus (natural protein, rat, UniProt O88339 1-575, looked up)
chain: MSTSSLRRQMKNIVHNYSEAEIKVREATSNDPWGPSSSLMSEIADLTYNVVAFSEIMSMIWKRLNDHGKNWRHVYKAMTLMEYLIKTGSERVSQQCKENMYAVQTLKDFQYVDRDGKDQGVNVREKAKQLVALLRDEDRLREERAHALKTKEKLAQTATASSAAVGSGPPPEAEQAWPQSSGEEELQLQLALAMSKEEADQPPSCGPEDDVQLQLALSLSREEHDKEERIRRGDDLRLQMAIEESKRETGGKEESSLMDLADVFTTPAPPQASDPWGGPASVPTAVPVAAAASDPWGAPAVPPAADPWGGAAPTPASGDPWRPAAPTGPSVDPWGGTPAPAAGEGPTSDPWGSADGGAPVSGPPSSDPWAPAPAFSDPWGGSPAKPSSNGTAVGGFDTEPDEFSDFDRLRTALPTSGSSTGELELLAGEVPARSPGAFDMSGVGGSLAESVGSPPPAATPTPTPPTRKTPESFLGPNAALVDLDSLVSRPGPTPPGAKASNPFLPSGAPATGPSVTNPFQPAPPATLTLNQLRLSPVPPVPGAPPTYISPLGGGPGLPPMMPPGPPAPNTNPFLL
B3: Delta-like 1 (Dll1) (ligand, UniProt P97677 18-714, looked up)
chain: QVWSSGVFELKLQEFVNKKGLLGNRNCCRGGSGPPCACRTFFRVCLKHYQASVSPEPPCTYGSAVTAVLGVDSFSLPDGAGIDPAFSNPIRFPFGFTWPGTFSLIIEALHTDSPDDLATENPERLISRLTTQRHLTVGEEWSQDLHSSGRTDLRYSYRFVCDEHYYGEGCSVFCRPRDDAFGHFTCGERGEKMCDPGWKGQYCTDPICLPGCDDQHGYCDKPGECKCRVGWQGRYCDECIRYPGCLHGTCQQPWQCNCQEGWGGLFCNQDLNYCTHHKPCRNGATCTNTGQGSYTCSCRPGYTGANCELEVDECAPSPCRNGGSCTDLEDSYSCTCPPGFYGKVCELSAMTCADGPCFNGGRCSDNPDGGYTCHCPAGFSGFNCEKKIDLCSSSPCSNGAKCVDLGNSYLCRCQTGFSGRYCEDNVDDCASSPCANGGTCRDSVNDFSCTCPPGYTGRNCSAPVSRCEHAPCHNGATCHQRGQRYMCECAQGYGGANCQFLLPEPPPDLIVAAQGGSFPWVAVCAGVVLVLLLLLGCAAVVVCVRLKLQKHQPPPDPCGGETETMNNLANCQREKDVSVSIIGATQIKNTNKKADFHGDHGADKSSFKARYPTVDYNLIRDLKGDEATVRDAHSKRDTKCQSQGSVGEEKSTSTLRGGEVPDRKRPESVYSTSKDTKYQSVYVLSAEKDECVIATEV

What all share (assay): co-IP
The target of experiment [1] is B3.
In experiment [2] the target is T1, Myc-epsin1 (UniProt O88339 1-575).
T1 sequence (looked up): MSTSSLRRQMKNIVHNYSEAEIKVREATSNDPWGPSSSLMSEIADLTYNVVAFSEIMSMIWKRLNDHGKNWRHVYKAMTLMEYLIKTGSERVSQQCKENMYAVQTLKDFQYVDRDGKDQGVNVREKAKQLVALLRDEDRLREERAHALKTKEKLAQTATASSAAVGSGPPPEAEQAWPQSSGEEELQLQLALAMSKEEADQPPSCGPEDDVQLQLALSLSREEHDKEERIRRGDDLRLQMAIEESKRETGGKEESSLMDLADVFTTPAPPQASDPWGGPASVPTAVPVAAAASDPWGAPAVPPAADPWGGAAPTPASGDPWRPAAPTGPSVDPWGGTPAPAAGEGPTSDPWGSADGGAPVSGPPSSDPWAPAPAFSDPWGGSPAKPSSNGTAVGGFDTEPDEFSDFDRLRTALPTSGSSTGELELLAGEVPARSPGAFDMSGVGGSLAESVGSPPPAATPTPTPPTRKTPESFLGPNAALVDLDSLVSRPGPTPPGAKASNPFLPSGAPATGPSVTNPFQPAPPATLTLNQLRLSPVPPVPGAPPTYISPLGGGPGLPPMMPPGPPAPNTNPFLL

The target in experiment [3] is B1.

Consider B1, for which the “fold increase of the co-IP, cells on N1Fc- against Fc-plates” value in experiment [1] turned out to be 1.8 fold.

B2: Dll1 expressed in 293T cells (ligand, UniProt P97677 18-714, looked up)
chain: QVWSSGVFELKLQEFVNKKGLLGNRNCCRGGSGPPCACRTFFRVCLKHYQASVSPEPPCTYGSAVTAVLGVDSFSLPDGAGIDPAFSNPIRFPFGFTWPGTFSLIIEALHTDSPDDLATENPERLISRLTTQRHLTVGEEWSQDLHSSGRTDLRYSYRFVCDEHYYGEGCSVFCRPRDDAFGHFTCGERGEKMCDPGWKGQYCTDPICLPGCDDQHGYCDKPGECKCRVGWQGRYCDECIRYPGCLHGTCQQPWQCNCQEGWGGLFCNQDLNYCTHHKPCRNGATCTNTGQGSYTCSCRPGYTGANCELEVDECAPSPCRNGGSCTDLEDSYSCTCPPGFYGKVCELSAMTCADGPCFNGGRCSDNPDGGYTCHCPAGFSGFNCEKKIDLCSSSPCSNGAKCVDLGNSYLCRCQTGFSGRYCEDNVDDCASSPCANGGTCRDSVNDFSCTCPPGYTGRNCSAPVSRCEHAPCHNGATCHQRGQRYMCECAQGYGGANCQFLLPEPPPDLIVAAQGGSFPWVAVCAGVVLVLLLLLGCAAVVVCVRLKLQKHQPPPDPCGGETETMNNLANCQREKDVSVSIIGATQIKNTNKKADFHGDHGADKSSFKARYPTVDYNLIRDLKGDEATVRDAHSKRDTKCQSQGSVGEEKSTSTLRGGEVPDRKRPESVYSTSKDTKYQSVYVLSAEKDECVIATEV
In the case of B2, in experiment [2], the “fold decrease of the co-IP with PAR-1T560A-eGFP” value worked out at 2 fold.

On to B3, for which the “fold increase of the co-IP, cells on N1Fc- against Fc-coated dishes” value in experiment [3] was 1.9 fold.
